Measured values taken from US20190119389A1 (POTENZA THERAPEUTICS, published 2019).

Columns and labels:
Experiment in all cases: BLI Octet QKe, antibody on AHC sensor, NRP-1-Fc fragment 500 nM
[1] = biological target: T1, Recombinant human NRP-1-Fc fusion protein, a1a2b1 domains (human, UniProt O14786 22-424, limits assumed)
T1 construct: Only the named domains of hNRP-1 are in the construct; not shown: Fc

[2] = biological target: T2, Recombinant human NRP-1-Fc fusion protein, a1a2b1b2 domains (human, UniProt O14786 22-583, limits assumed)
T2 construct: Only the named domains of hNRP-1 are in the construct; not shown: Fc

[3] = biological target: T3, Recombinant human NRP-1-Fc fusion protein, a2b1b2 domains (human, UniProt O14786 147-583, limits assumed)
T3 construct: Only the named domains of hNRP-1 are in the construct; not shown: Fc
T3 sequence (O14786 147-583 V179A limits assumed): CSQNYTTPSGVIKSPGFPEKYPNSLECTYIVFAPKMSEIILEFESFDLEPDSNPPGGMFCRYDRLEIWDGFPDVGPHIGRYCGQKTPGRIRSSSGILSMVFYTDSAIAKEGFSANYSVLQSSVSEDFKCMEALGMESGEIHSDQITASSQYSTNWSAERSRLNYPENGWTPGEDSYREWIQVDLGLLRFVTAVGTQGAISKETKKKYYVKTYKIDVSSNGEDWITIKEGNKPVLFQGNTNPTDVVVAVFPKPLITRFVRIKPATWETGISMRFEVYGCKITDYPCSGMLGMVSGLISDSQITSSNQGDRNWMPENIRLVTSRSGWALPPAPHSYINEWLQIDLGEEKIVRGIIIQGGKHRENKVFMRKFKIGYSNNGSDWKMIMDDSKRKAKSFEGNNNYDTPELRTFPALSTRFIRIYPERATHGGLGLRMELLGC

binding result [1] | binding result [2] | binding result [3] | Binder
binds | binds |  | SEC3 (antibody, human IgG1, kappa, V domains shown, Appendix A gives 144 as light chain and 145 as heavy chain; also called pan-anti-NRP-1 antibody) VH: EVQLVESGGGLVQPGGSLRLSCAASGFTISGYGIHWVRQAPGKGLEWVAYIYPDSGYTDYADSVKGRFTISADTSKNTAYLQMNSLRAEDTAVYYCAREDFRNRRRLWYVMDYWGQGTLVTVSS VL: DIQMTQSPSSLSASVGDRVTITCRASQDVSTAVAWYQQKPGKAPKLLIYSASFLYSGVPSRFSGSGSGTDFTLTISSLQPEDFATYYCQQAWAYLPTFGQGTKVEIKR
 | binds | binds | anti-NRP Antibody SEC10 (antibody, human IgG1, kappa, V domains shown) VH: EVQLVESGGGLVQPGGSLRLSCAASGFTFSSYAMSWVRQAPGKGLEWVSQISPAGGYTNYADSVKGRFTISADTSKNTAYLQMNSLRAEDTAVYYCARGELPYYRMSKVMDVWGQGTLVTVSS VL: DIQMTQSPSSLSASVGDRVTITCRASQYFSSYLAWYQQKPGKAPKLLIYGASSRASGVPSRFSGSGSGTDFTLTISSLQPEDFATYYCQQYLGSPPTFGQGTKVEIKR
